No end group written: not given here.
B1: B6Hα-1-A3-IR (peptide)
peptide: SRAKVEAEMPDSGDPFYHKLSELLASG
B2: H2CA-4-F6-IGFR (peptide)
peptide: AVRATRFDEAFYDWFVRQISDGQGNK
B3: H2CA-2-B4-IGFR (peptide)
peptide: CCLLCRFQQNFYDWFVCQGISRLRPL
B4: 20E2B-2-B8-IGFR (peptide)
peptide: IWATGDFYRLLSQLVMGRVGT
B5: NNRPγ-4-A7-IR (peptide)
peptide: RFDPFYSYFVNLLGASA
B6: R20 -4-20C11-IR (peptide)
peptide: DRAFYNGLRDLVGAVYGAWD
B7: H2CA-4-F10-IGFR (peptide)
peptide: VNQSGSIHENFYDWFERQVSHQRGVR
B8: 20E2B-4-H9-IGFR (peptide)
peptide: RCQGTGFYTCIQELIGFGDPD
B9: H2CA-4-H4-IGFR (peptide)
peptide: QAVQPGFHEEFYDWFVRQVSTGVGGG
B10: B6Hα-3-E8-IR (peptide)
peptide: RGKTAAVIVGRPADPFYHKLSELLQGG
B11: 20E2B-3-E12-IGFR (peptide)
peptide: VATSQGFYSGLSELLQGGGNV
B12: 20E2B-3-D4-IGFR (peptide)
peptide: NSRDGGFYLQLERLLGFPVTG
B13: 20E2B-4-H8-IGFR (peptide)
peptide: PAGPCGFYCGLGLLLHGDQSP
B14: H2CA-1-A7-IGFR (peptide)
peptide: RCGRELYHSTFYDWFDRQVAGRTCPS
B15: H2CA-1-A3-IGFR (peptide)
peptide: APDPSDFQEIFYDWFVRQVSRMPGGG
B16: H2CA-4-F5-IGFR (peptide)
peptide: VGYQGQGDENFYDWFIRQVSGRLGVQ
B17: H2CA-3-C8-IGFR (peptide)
peptide: SSCDGAGHESFYEWFVRQVSGCRSV
B18: H2CA-3-D6-IGFR (peptide)
peptide: QSPVGSSHEDFYDWFFRQVAQSGAHQ
B19: 40F-4-D1-IGFR (peptide)
peptide: LSCLAYSRHGIWRPSTDLGLGRSVGEGSVSTRWRGYDWFE
B20: 20E2B-2-B7-IGFR (peptide)
peptide: LSSDGQFYRANLLLQGSAGR
B21: H2CA-2-B9-IGFR (peptide)
peptide: RAGSSDFHEDFYEWFVRQVSLSLKGK
B22: 20E2B-3-D12-IGFR (peptide)
peptide: QGNVLDFYGWIGRLLAKQGSD
B23: 20E2B-1-A11-IGFR (peptide)
peptide: RFSTDGFYQYLLALVGGGPVG
B24: H2CA-4-G9-IGF (peptide)
peptide: GIISQSCPESFYDWFAGQVSDPWWCW
B25: NNRPγ-4-A9-IR (peptide)
peptide: EGSGFYGYFFSLLGLQG
B26: 20E2B-3-C4-IGFR (peptide)
peptide: ASSASGFYELLQRLAGLGLEV
B27: E4D -4-H2-IR (peptide)
peptide: GFREGNFYEWFQAQVT
B28: 20E2A-3-C7-IGFR (peptide)
peptide: VGTVAGFYDAIAQLVARASRV
B29: 20E2B-4-G11-IGFR (peptide)
peptide: RQGTGSFYLMLEQLLVGARGP
B30: 20E2B-2-B3-IGFR (peptide)
peptide: ICTGQGFYQVLCGLLRGTSAR
B31: 20E2B-4-F10-IGFR (peptide)
peptide: AQPCGGFYGLLEQLVGRSVCD
B32: 20E2B-3-D6-IGFR (peptide)
peptide: DSVGDNFYQLLESLVGGHGVG
B33: 20C-3-E4-IGFR (peptide)
peptide: FFYRCLSRLLGGQLGSRLGLSCIGD
B34: B6Hα-2-C10-IR (peptide)
peptide: SGAKVIWTGDSGDPFYHKLSELLQGS
B35: H2CA-3-E8-IGFR (peptide)
peptide: LGYQEPFQQNFYDWFVRQVSGAENAG
B36: 20E2B-4-H12-IGFR (peptide)
peptide: YSCGDGFYSLLSDLLGGQFRC
B37: H2CA-3-D8-IGFR (peptide)
peptide: NYRRQVFNGNFYDWFDRQVFSLVTPG
B38: 20E2B-4-F8-IGFR (peptide)
peptide: PVGVQGFYEGLSRLVLGRGGW
B39: 20E2B-3-C8-IGFR (peptide)
peptide: QPAPDGFYSALMKLIGRGGVS
B40: 20E2Bβ-4-G7-IR (peptide)
peptide: LQPCSGFYECIERLIGVKLSG
modifications: not fully specified (bridges); cysteine pairing not given here
B41: H2CA-4-H9-IGFR (peptide)
peptide: RGAVAGFHDQFYDWFDRQVSRVHKFG
B42: B6Hα-4-G8-IR (peptide)
peptide: GGTKAVAKVGTRDDPFYHKLSELLQGS
B43: NNRPγ-4-A1-IR (peptide)
peptide: IIGGFYSYFNSVLRLGT
B44: A6L-0-H3-IR (peptide)
peptide: YRGMVLGRISGGAGKAASERPARIGQKVSAVNFYDWFV
B45: 20E2A-3-A4-IGFR (peptide)
peptide: AGSVTSFYDAMEQLVATGTSA
B46: 20E2A-4-G11-IGFR (peptide)
peptide: NVFVSFYDAIDQLVCQRIGC
B47: 20E2B-3-D8-IGFR (peptide)
peptide: GGTEVDFYRALERLVRGQLGL
B48: 20E2B-4-F9-IGFR (peptide)
peptide: QPDHSYFYSLLQELVGSEERL
B49: A6L-0-E6-IR (peptide)
peptide: YRGMLVLGRSSDGAGKVAFERPARIGQTVFAVNFYDWFV
B50: B6Hα-3-F7-IR (peptide)
peptide: SRVAATKEKRPSDDPFYHKLSELLQGS
B51: 20E2A-3-A12-IGFR (peptide)
peptide: LSVALSFYDALGQLVAGEGRW
B52: B6Hα-1-B3-IR (peptide)
peptide: GCITAENGAGDPFYHKLSELGGCS
B53: B6Hα-3-F11-IR (peptide)
peptide: RGMKEEVLVGGSTDPFYHKLSELLQGS
B54: 20C-3-A1-IGFR (peptide)
peptide: SSYGCDGFYLMLFSLGLVASQELEC
B55: B6Hα-3-F10-IR (peptide)
peptide: GCWEWQKWHGASDPFYHKLSELGGCS
B56: B6Hα-3-E9-IR (peptide)
peptide: RCEEKQAEVGPSSDPFYHKMSELLGCR

target: soluble human insulin receptor (IR-Fc) (human) (UniProt P06213); assay: phage ELISA

Row | ratio over background | Binder
1 | 0.8 | B1
2 | 1.1 | B2
3 | 1.1 | B3
4 | 0.8 | B4
5 | 1.3 | B5
6 | 3 | B6
7 | 1 | B7
8 | 0.9 | B8
9 | 1 | B9
10 | 1.1 | B10
11 | 0.8 | B11
12 | 0.8 | B12
13 | 0.9 | B13
14 | 0.6 | B14
15 | 0.8 | B15
16 | 0.8 | B16
17 | 1.2 | B17
18 | 2.2 | B18
19 | 0.3 | B19

Row | ratio over background | Binder
20 | 0.9 | B20
21 | 1.7 | B21
22 | 0.9 | B22
23 | 1 | B23
24 | 0.6 | B24
25 | 1.4 | B25
26 | 3.3 | B26
27 | 8.2 | B27
28 | 1.1 | B28
29 | 0.6 | B29
30 | 0.7 | B30
31 | 2.2 | B31
32 | 2.6 | B32
33 | 1.3 | B33
34 | 1.1 | B34
35 | 2.2 | B35
36 | 0.8 | B36
37 | 1.8 | B37
38 | 0.8 | B38

target: soluble IGF-1 receptor (human) (UniProt P08069); assay: phage ELISA

Row | ratio over background | Binder
39 | 2.6 | B1
40 | 7.3 | B2
41 | 4.1 | B3
42 | 5.7 | B4
43 | 6.3 | B5
44 | 30.8 | B6
45 | 5.7 | B7
46 | 5.2 | B8
47 | 15.6 | B39
48 | 4.1 | B9
49 | 25.2 | B40
50 | 5.3 | B10
51 | 6 | B11
52 | 7.9 | B12
53 | 5.3 | B13
54 | 2.2 | B14
55 | 3.8 | B15
56 | 5.6 | B41
57 | 9.7 | B16

Row | ratio over background | Binder
58 | 5.6 | B17
59 | 9 | B18
60 | 4.6 | B19
61 | 6.1 | B20
62 | 7 | B21
63 | 6.2 | B22
64 | 9.5 | B23
65 | 6.1 | B42
66 | 9.5 | B24
67 | 10 | B25
68 | 20.4 | B26
69 | 33.9 | B27
70 | 10.9 | B43
71 | 5.4 | B28
72 | 26 | B44
73 | 4.5 | B29
74 | 2.5 | B45
75 | 5.3 | B30
76 | 17.3 | B31

Row | ratio over background | Binder
77 | 17.8 | B32
78 | 7.7 | B33
79 | 3.3 | B46
80 | 5.8 | B34
81 | 6.3 | B35
82 | 17.7 | B47
83 | 14.7 | B48
84 | 9.7 | B36
85 | 31 | B49
86 | 3.1 | B50
87 | 4.3 | B51
88 | 3.2 | B52
89 | 7.2 | B37
90 | 18.7 | B53
91 | 7.3 | B38
92 | 20.8 | B54
93 | 8.8 | B55
94 | 24.2 | B56

Source: patent publication WO2001072771A2
